This is an account of results in PMC12615753, “Glutathione as a taste modulator: molecular mechanisms of interaction with umami and sweet taste receptors” (Food Chemistry: Molecular Sciences, 2025).

One test concerns the target T1, hTAS1R1/rTAS1R3 (UniProt Q7RTX1+Q923K1).
T1 construct: UniProtKB number Q7RTX1–1); The cDNA coding region of rTAS1R3 was synthesized with optimized-codon usage for human expression; expressed in transfected cells; host or cells: HEK293T/17 (ATCC CRL-11268)
T1 sequence (Q7RTX1 21-841): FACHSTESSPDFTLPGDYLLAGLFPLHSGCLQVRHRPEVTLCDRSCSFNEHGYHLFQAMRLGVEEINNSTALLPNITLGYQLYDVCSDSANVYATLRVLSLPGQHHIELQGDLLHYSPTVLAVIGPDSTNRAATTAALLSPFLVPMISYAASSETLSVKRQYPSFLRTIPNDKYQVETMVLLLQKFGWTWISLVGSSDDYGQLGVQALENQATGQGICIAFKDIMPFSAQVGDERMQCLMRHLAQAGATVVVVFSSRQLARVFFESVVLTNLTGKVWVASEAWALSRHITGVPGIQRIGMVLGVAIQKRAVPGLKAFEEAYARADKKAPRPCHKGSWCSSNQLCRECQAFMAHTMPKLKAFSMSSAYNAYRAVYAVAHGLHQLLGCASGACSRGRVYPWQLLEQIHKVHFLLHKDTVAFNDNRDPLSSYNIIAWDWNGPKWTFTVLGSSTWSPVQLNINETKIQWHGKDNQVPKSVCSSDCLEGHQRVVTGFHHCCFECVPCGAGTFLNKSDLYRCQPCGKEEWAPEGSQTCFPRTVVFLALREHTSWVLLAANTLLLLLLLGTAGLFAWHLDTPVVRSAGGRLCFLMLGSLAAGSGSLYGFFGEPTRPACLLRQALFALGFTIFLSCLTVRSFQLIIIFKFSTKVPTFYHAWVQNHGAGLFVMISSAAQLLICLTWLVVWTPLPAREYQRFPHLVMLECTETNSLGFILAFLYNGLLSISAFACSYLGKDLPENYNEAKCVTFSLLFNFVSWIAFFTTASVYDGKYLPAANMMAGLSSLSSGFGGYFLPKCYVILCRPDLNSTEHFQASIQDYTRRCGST
T1 sequence (Q923K1 21-858): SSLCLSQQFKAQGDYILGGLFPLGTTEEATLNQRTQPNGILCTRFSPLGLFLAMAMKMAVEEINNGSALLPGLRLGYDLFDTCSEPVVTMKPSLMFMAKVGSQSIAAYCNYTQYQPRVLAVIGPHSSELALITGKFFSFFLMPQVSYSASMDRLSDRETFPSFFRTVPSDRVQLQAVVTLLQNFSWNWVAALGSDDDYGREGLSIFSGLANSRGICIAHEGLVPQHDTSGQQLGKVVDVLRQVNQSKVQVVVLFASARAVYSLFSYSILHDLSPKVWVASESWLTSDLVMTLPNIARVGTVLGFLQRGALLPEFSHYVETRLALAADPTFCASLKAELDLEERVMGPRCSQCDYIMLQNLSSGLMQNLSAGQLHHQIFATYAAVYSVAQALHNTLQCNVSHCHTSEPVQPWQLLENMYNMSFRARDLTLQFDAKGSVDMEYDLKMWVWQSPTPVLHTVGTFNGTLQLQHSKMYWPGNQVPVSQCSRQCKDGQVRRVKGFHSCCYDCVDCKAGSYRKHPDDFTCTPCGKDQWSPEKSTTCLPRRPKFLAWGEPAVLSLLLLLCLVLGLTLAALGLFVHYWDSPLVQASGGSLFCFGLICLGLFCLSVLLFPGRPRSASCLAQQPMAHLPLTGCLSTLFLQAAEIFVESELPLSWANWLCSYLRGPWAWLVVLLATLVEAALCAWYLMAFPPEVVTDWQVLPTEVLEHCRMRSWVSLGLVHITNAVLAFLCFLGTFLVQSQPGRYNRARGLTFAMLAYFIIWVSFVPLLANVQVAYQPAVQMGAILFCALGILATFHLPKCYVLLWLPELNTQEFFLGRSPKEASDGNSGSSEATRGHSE
As to the kind of experiment: Calcium assay (GCaMP6s, Gα15i2) in transiently transfected HEK293T/17 cells. Format: cell-based, human, rat. As to the method: To this end, hTAS1R1/rTAS1R3 and the chimeric G protein Gα15i2 were transiently expressed in HEK293T cells. Cellular responses were assessed via calcium imaging using a fluorescent protein calcium biosensor (GCaMP6s) and compared with those of mock-transfected cells.

The next test has as its system umami perception. To be noted: ref Shigemura et al., 2009, cited from earlier work.
The target of test [1] is hTAS1R1(A170W)/rTAS1R3 (human | rat) (UniProt Q7RTX1).
Test [2] has as its target hTAS1R1(A302W)/rTAS1R3 (human | rat) (UniProt Q7RTX1).
For test [3], the target named is hTAS1R1(D192A)/rTAS1R3 (human | rat) (UniProt Q7RTX1).
The target of test [4] is hTAS1R1(H308A)/rTAS1R3 (human | rat) (UniProt Q7RTX1).
Test [5] has as its target hTAS1R1(H71A)/rTAS1R3 (human | rat) (UniProt Q7RTX1).
The target in test [6] is hTAS1R1(H71L)/rTAS1R3 (human | rat) (UniProt Q7RTX1).
Test [7] deals with hTAS1R1(L223A)/rTAS1R3 (human | rat) (UniProt Q7RTX1).
Test [8] addresses hTAS1R1(Q278A)/rTAS1R3 (human | rat) (UniProt Q7RTX1).
Test [9] deals with hTAS1R1(Q278K)/rTAS1R3 (human | rat) (UniProt Q7RTX1).
In test [10] the target is hTAS1R1(Q278Y)/rTAS1R3 (human | rat) (UniProt Q7RTX1).
Test [11] deals with hTAS1R1(R151A)/rTAS1R3 (human | rat) (UniProt Q7RTX1).
In test [12] the target is hTAS1R1(R277A)/rTAS1R3 (human | rat) (UniProt Q7RTX1).
Test [13] concerns the target hTAS1R1/rTAS1R3 umami taste receptor (wild type) (human | rat) (UniProt Q7RTX1).
Test [14] shares this target. This is another data set of the same source.
Test [15] has as its target hTAS1R2/hTAS1R3 sweet taste receptor (human) (UniProt Q8TE23).
Test [16] deals with hTAS1R2/rTAS1R3 sweet taste receptor (human | rat) (UniProt Q8TE23).
The target in test [17] is hTAS1R1 subunit expressed alone (human) (UniProt Q7RTX1).

Like-named read-outs stand apart in the source and are kept apart here.

Sequence of hTAS1R2/rTAS1R3 sweet taste receptor (human | rat) (Q8TE23 20-839): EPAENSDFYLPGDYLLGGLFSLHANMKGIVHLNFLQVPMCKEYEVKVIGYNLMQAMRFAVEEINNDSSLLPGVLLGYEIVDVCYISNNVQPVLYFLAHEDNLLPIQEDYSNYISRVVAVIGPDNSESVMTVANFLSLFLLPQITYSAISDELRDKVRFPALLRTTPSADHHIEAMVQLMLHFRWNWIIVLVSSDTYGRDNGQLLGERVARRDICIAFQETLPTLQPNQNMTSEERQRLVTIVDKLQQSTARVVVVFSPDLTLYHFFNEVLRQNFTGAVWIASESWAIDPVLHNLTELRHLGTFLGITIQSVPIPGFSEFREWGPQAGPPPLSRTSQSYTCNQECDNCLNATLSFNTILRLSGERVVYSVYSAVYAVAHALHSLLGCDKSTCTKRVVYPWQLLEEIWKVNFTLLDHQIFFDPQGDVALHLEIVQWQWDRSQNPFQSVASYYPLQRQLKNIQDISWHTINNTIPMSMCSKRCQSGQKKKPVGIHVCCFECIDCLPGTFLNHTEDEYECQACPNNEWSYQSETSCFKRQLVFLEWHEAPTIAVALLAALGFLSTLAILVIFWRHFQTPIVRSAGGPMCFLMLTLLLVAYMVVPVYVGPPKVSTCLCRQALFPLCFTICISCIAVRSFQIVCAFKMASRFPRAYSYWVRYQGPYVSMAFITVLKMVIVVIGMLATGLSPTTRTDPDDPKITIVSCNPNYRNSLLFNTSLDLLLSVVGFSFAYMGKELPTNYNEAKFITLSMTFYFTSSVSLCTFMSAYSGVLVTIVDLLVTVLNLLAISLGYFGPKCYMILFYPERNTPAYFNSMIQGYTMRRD
Sequence of hTAS1R2/hTAS1R3 sweet taste receptor (human) (Q8TE23 20-839, chain 1 of 2): as the sequence (Q8TE23 20-839) above
Sequence of hTAS1R2/hTAS1R3 sweet taste receptor (human) (Q7RTX0 21-852, chain 2 of 2, further chain): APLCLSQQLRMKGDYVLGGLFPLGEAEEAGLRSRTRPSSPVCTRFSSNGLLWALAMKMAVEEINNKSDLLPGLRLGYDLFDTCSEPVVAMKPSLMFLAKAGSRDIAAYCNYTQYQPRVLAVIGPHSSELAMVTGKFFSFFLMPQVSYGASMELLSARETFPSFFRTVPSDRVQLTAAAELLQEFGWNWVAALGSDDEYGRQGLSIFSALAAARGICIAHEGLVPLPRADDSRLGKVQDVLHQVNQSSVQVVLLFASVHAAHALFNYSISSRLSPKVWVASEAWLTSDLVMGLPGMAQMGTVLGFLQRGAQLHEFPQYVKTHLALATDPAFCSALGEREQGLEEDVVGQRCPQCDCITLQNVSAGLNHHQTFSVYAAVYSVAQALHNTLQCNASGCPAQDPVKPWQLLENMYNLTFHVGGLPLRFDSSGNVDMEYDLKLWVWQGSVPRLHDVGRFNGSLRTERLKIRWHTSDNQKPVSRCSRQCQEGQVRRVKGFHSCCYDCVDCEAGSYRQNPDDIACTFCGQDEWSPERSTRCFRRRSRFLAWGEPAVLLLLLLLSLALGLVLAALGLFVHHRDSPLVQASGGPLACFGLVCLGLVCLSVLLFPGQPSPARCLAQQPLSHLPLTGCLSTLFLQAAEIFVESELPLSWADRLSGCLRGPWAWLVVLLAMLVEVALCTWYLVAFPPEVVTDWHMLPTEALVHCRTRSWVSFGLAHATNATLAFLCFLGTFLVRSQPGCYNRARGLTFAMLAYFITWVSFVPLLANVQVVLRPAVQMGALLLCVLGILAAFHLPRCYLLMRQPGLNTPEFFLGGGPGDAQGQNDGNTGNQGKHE

Turning to `Nc1nc2c(ncn2[C@@H]2O[C@H](COP(=O)(O)O)[C@@H](O)[C@H]2O)c(=O)[nH]1` [GMP, guanosine 5′-monophosphate, reference compound], the “effect of the added 5′-ribonucleotide on the response to GSH” value at hTAS1R1/rTAS1R3 (Fig. 6C–D) was “did not significantly increase”. Further, at hTAS1R1/rTAS1R3 (compound alone), the “activation of the receptor” value is recorded as “did not activate”.

With `N[C@@H](CCC(=O)N[C@@H](CS)C(=O)O)C(=O)O` [Glu-Cys, γ-L-Glutamyl-L-cysteine], at hTAS1R1/rTAS1R3 (agonist alone, Fig. 1, Fig. S2), the EC50 (usually the concentration that produces a half-maximal response) was 3.2 ± 1.54 mM and the “max ∆F/F0” value was 0.42 ± 0.07.

In the case of `N[C@@H](CCC(=O)O)C(=O)[O-].[Na+]` [MSG, monosodium glutamate], the sensory recognition threshold in the test on umami perception (MSG alone) was 7.66 mM; in the test on umami perception (in the presence of 0.05 mM IMP) it was 0.20 mM.

Consider “Reduced L-glutathione (γ-L-glutamyl-L-cysteinyl-glycine) (peptide)”, for which the EC50 of GSH, calcium response of transfected HEK293 cells in test [1] turned out to be 5.29 mM; in [2], 5.32 mM; in test [3], 3.25 mM; in test [4], 3.25 mM; in [5], 2.03 mM; in [6], 2.27 mM. Further, the EC50 of GSH, calcium response of transfected HEK293 cells in test [7] is 2.32 mM; in [8], 3.42 mM; in test [9] it was 5.66 mM; in [10] it was 3.96 mM; in [11], 2.59 mM; in [12] it was 1.84 mM. Also, the EC50 of GSH, calcium response of transfected HEK293 cells (mutant series) in [13] stood at 2.52 mM. Moreover, the EC50 of GSH, calcium response (GCaMP6s fluorescence) of transfected HEK293T cells in test [14] turned out to be 2.15 mM. For the same compound, the EC50 of GSH, calcium response of cells expressing the sweet taste receptor was found to be 0.591 mM in test [15] and 4.06 mM in test [16]. Moreover, the EC50 of GSH in the presence of 0.1 μM S807, calcium response of HEK293 cells expressing hTAS1R1 alone in [17] stood at 0.281 mM.

For the compound γ-L-Glutamyl-L-cysteine (peptide), the EC50 of Glu-Cys, calcium response (GCaMP6s fluorescence) of transfected HEK293T cells in [14] amounted to 3.2 mM.
